Results published in paper doi:10.1101/2021.07.14.452405.

Key:
[1] = target: Melbournevirus major capsid protein (Melbournevirus); experiment: cryo-EM structure
[2] = target: Melbournevirus penton base protein (Melbournevirus); experiment: cryo-EM structure

Substance	stoichiometry N [1]	stoichiometry N [2]
Melbournevirus major capsid protein (natural protein)	3	
Melbournevirus penton base protein (natural protein)		5
